Assay results from IntAct's records for PubMed 15143060.

Target: gga1_human GGA1 (UniProt Q9UJY5)
Sequence (Q9UJY5 whole entry): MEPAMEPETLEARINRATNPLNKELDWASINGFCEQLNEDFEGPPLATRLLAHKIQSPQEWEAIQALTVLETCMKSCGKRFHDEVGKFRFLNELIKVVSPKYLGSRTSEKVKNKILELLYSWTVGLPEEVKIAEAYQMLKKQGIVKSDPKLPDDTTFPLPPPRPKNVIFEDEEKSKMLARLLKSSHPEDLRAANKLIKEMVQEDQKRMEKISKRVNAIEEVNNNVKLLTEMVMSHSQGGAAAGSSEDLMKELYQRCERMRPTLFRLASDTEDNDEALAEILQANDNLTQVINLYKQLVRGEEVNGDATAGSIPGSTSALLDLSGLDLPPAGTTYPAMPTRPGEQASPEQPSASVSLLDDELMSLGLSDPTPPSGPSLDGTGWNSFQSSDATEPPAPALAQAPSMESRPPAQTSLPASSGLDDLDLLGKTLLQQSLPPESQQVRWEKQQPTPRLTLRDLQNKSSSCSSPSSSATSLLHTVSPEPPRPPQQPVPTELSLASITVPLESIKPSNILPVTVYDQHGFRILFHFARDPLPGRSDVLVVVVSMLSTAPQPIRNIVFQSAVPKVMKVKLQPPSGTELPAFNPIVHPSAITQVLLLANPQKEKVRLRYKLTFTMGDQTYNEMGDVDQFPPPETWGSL

## ADP-ribosylation factor 1 (Homo sapiens), P84077 T32N
  effect of a mutation on the interaction: decreasing interaction
